Laboratory results as given in the supplement of paper PMC11780869.

System: Bacillus subtilis
Assay: cleaved RNA product abundance (RNA/gDNA barcode ratio) relative to median wild-type variant (ratio to wild type); higher = more accumulation of the downstream cleavage product
Procedure, shortened: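 In LB at 37°C, B. subtilis cultures went from OD600 0.0003 to 0.3. Their chromosomes held barcoded reporter mRNAs, truncated aprE or tetM, with RNase Y cleavage-site windows mutagenized via oligos at a 9% error rate. Cleaved RNA, chosen by gel, was reverse transcribed and barcode-sequenced alongside genomic DNA barcodes with UMI collapsing, giving a per-construct RNA:gDNA ratio scaled to the median construct with the unmutated site. This scaled ratio is termed cleaved product abundance.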

[1] = experiment (reporter, strain, medium): exp 8a: truncated aprE reporter, strain BJT201 with 2% xylose (RNase J1 expressed), cleavage site: glnRA (positions -5 to +31 mutated)
[2] = experiment (reporter, strain, medium): exp 4a: truncated aprE reporter, strain BJT201 with 2% xylose (RNase J1 expressed), cleavage site: cggR-gapA (positions -7 to +36 mutated)
[3] = experiment (reporter, strain, medium): exp 2b: truncated aprE reporter, strain BJT200, cleavage site: cggR-gapA (positions -7 to +36 mutated)

Sequence | cleaved RNA product abundance [1] | cleaved RNA product abundance [2] | cleaved RNA product abundance [3]
CGACATGTCCCGCTTCTTTCATTAATCCGTTATCAAATGTTTTGCTATATACATTTACCTTTTAAGAGGAGGAAT | 0.283 | – | –
ACAGACGAAGGAGCCGCAAAGAATTTATGAAGGGATGAATAATCCCTCAATATAAATATCTCTCACTTATTTAAA | – | 0.325 | –
ACAGACGAAGGAGCCGCAAAGAAGTTATTAAGCGATGAATAATCCCTCAATATAAAAATCTCTCACTTATTTAAA | – | 0.111 | 0.111
ACAGACGAAGGAGCCGCAAAGAAGTTATTAAGAGATGAATAATCCTTCAATATAAATATCTCTCACTTATTTAAA | – | 0.211 | 0.105
CGACATGTCCCGCTTCTTTCATTAATCCGTTAGTAACTGTTTTGCGATATACATTTACCTTTTAAGAGGAGGAAT | 0.29 | – | –
CGACATGTCCCGCTTCTTTCATTAAACCGTTAGCAACTGTTTTGTTATATACATTTACCTTTTAAGAGGAGGAAT | 0.313 | – | –
ACAGACGAAGGAGCCGCAAAGAAGTTATTAAGGGATGAATAATCACACAATATAAATATCTCTCACTTATTTAAA | – | 0.142 | 0.114
ACAGACGAAGGAGCCGCAAATAAGTTATTAAGAGATGAATAATCCCTCAATATAAATATTTCTCACTTATTTAAA | – | 0.124 | –
ACAGACGAAGGAGCCGCAAAGAAGTTATTAAGGGATGAATAATCCATGAATATAAATATCTCTCACTTATTTAAA | – | 0.18 | –
ACAGACGAAGGAGCCGCAAATAAGTTATTAAGGGATGAATAATCCCTCAGTATAAATATCTCTCACTTATTTAAA | – | 0.303 | –
CGACATGTCCCGCTTCTTTCATTAATCCGTTAGCAACTGTTTTACGATATACATTTACCTTTTAAGAGGAGGAAT | 0.559 | – | –
ACAGACGAAGGAGCCGCAAAGAAGTGATTAAGGGATGAATAATCCTTCAATATAAATATCTCTCACTTATTTAAA | – | 0.342 | 0.337
ACAGACGAAGGAGCCGCAAAGACGTTATAAAGGGATGAATAATCCCTCAATATAAATATCTCTCACTTATTTAAA | – | 0.401 | –
ACAGACGAAGGAGCCGCAAAGAACTTATTAAGGGGTGAATAATCCCTCAATATAAATATCTCTCACTTATTTAAA | – | 0.411 | –
ACAGACGAAGGAGCCGCAAAACAGTTATTAAGGGATGAATAATCCCTCAATATAAATATCTCTCACTTATTTAAA | – | 0.897 | 0.865
ACAGACGAAGGAGCCGCAAAGAAGTTATTAAGGGACGAATAATCCTTCAATATAAATATCTCTCACTTATTTAAA | – | 0.217 | 0.146
CGACATGTCCCGCTTCTTTCATTAATCAGTTAGCAACTGTATTGCTATATACATTTACCTTTTAAGAGGAGGAAT | 0.59 | – | –
ACAGACGAAGGAGCCGCAAAGTAGTTATTAAGGGATGGATAATCCCTCAATATAAATATCTCTCACTTATTTAAA | – | 0.537 | –
CGACATGTCCCGCTTCTTTCATTATTCCGTTAGCAACTGTTTTGCTATCTACATTTACCTTTTAAGAGGAGGAAT | 0.167 | – | –
ACAGACGAAGGAGCCGCAAAGAAGTTATTAATGGATGAATAATCCCTCAATTTAAATATCTCTCACTTATTTAAA | – | – | 0.0807
CGACATGTCCCGCTTCTTTCATTAATCCGAAAGCAACTGTTTTGCTATATACATTTACCTTTTAAGAGGAGGAAT | 0.39 | – | –
ACAGACGAAGGAGCCGCAAAGAAGTTATTAGGAGATGAATAATCCCTCAATATAAATATCTCTCACTTATTTAAA | – | 0.24 | –
CGACATGTCCCGCTTCTTTCATTACTCCGTTAGCAACTGTTTTGCTATTTACATTTACCTTTTAAGAGGAGGAAT | 0.151 | – | –
CGACATGTCCCGCTTCTTTCATTAATTCATTAGCAACTGTTTTGCTATATACATTTACCTTTTAAGAGGAGGAAT | 0.776 | – | –
ACAGACGAAGGAGCCGCAAAGAAGTTATTAAGGGATGAATAATCCCACAATATAAAAATCTCTCACTTATTTAAA | – | 0.25 | –
ACAGACGAAGGAGCCGCAAAGAACTTACTAAGGGATGAATAATCCCTCAATATAAATATCTCTCACTTATTTAAA | – | 0.237 | –
